For one protein, in vitro phosphorylation (% of best substrate) results are on record in patent US20050064507.

The target in series [1] is T1, gap-43 peptide SFRGHITRKKLK (SEQ ID NO:207) (not fully specified).
T1 chain: SFRGHITRKKLK

The target of series [2] is T2, FLJ20719 peptide RRGRRSTKKRRR (SEQ ID NO:171) (not fully specified).
T2 chain: RRGRRSTKKRRR

The target of series [3] is T3, CLK3 peptide RWKRRRSYSREH (SEQ ID NO:196) (not fully specified).
T3 chain: RWKRRRSYSREH

In series [4] the target is T4, prostaglandin E receptor 4 peptide DFRRRRSFRRIA (SEQ ID NO:186) (not fully specified).
T4 chain: DFRRRRSFRRIA

In series [5] the target is T5, CLK2 peptide RRRRSRTFSRS (SEQ ID NO:178) (not fully specified).
T5 chain: RRRRSRTFSRS

Series [6] deals with T6, GPR105 peptide KSSRNSTSVKKK (SEQ ID NO:206) (not fully specified).
T6 chain: KSSRNSTSVKKK

Series [7] concerns the target T7, NKTR peptide RSRSYSRSRSR (SEQ ID NO:211) (not fully specified).
T7 chain: RSRSYSRSRSR

Series [8] has as its target T8, IDN3 peptide VRRRRSQRISQR (SEQ ID NO:172) (not fully specified).
T8 chain: VRRRRSQRISQR

For series [9], the target named is T9, CDC2L5 peptide RHSRSRSRHRLS (SEQ ID NO:213) (not fully specified).
T9 chain: RHSRSRSRHRLS

For series [10], the target named is T10, MAST4 peptide VRRSKKSKKKES (SEQ ID NO:203) (not fully specified).
T10 chain: VRRSKKSKKKES

Series [11] concerns the target T11, S1P1 receptor peptide RTRSRRLTFRK (SEQ ID NO:169) (not fully specified).
T11 chain: RTRSRRLTFRK

B1: PKC-theta (protein)
chain: MSPFLRIGLSNFDCGSCQSCQGEAVNPYCAVLVKEYVESENGQMYIQKKPTMYPPWDSTFDAHINKGRVMQIIVKGKNVDLISETTVELYSLAERCRKNNGKTEIWLELKPQGRMLMNARYFLEMSDTKDMNEFETEGFFALHQRRGAIKQAKVHHVKCHEFTATFFPQPTFCSVCHEFVWGLNKQGYQCRQCNAAIHKKCIDKVIAKCTGSAINSRETMFHKERFKIDMPHRFKVYNYKSPTFCEHCGTLLWGLARQGLKCDACGMNVHHRCQTKVANLCGINQKLMAEALAMIESTQQARCLRDTEQIFREGPVEIGLPCSIKNEARPPCLPTPGKREPQGISWESPLDEVDKMCHLPEPELNKERPSLQIKLKIEDFILHKMLGKGSFGKVFLAEFKKTNQFFAIKALKKDVVLMDDDVECTMVEKRVLSLAWEHPFLTHMFCTFQTKENLFFVMEYLNGGDLMYHIQSCHKFDLSRATFYAAEIILGLQFLHSKGIVYRDLKLDNILLDKDGHIKIADFGMCKENMLGDAKTNTFCGTPDYIAPEILLGQKYNHSVDWWSFGVLLYEMLIGQSPFHGQDEEELFHSIRMDNPFYPRWLEKEAKDLLVKLFVREPEKRLGVRGDIRQHPLFREINWEELERKEIDPPFRPKVKSPFDCSNFDKEFLNEKPRLSFADRALINSMDQNMFRNFSFMNPGMERLIS
Turning to B1, the in vitro phosphorylation (% of best substrate) in series [1] was found to be 18; in [2], 92; in series [3], 32; in series [4], 50; in series [5], 65; in series [6], 19. The in vitro phosphorylation (% of best substrate) in series [7] was found to be 16; in [8] it was 86; in series [9] it was 13; in series [10], 24; in [11], 100.
